Results as given in patent US20220281980A1 (Bristol-Myers Squibb, published 2022).

What was measured:
[1] = molecular target: T1, human MICB expressed on transduced cells (human, UniProt Q29980 23-382); assay: cell-based or functional assay
T1 chain: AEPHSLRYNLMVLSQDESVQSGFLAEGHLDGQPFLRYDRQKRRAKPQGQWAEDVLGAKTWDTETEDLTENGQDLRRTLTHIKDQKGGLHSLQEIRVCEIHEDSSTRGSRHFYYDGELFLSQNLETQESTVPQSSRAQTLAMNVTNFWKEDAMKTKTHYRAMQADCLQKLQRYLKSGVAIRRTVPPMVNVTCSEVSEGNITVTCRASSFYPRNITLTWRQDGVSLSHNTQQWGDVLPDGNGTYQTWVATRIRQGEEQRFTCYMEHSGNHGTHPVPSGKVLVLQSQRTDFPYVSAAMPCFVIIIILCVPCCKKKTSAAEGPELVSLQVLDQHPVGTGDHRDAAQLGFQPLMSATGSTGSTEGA

[2] = molecular target: T2, human MICA/B endogenously expressed on 786-O cells (MICA allele *008) (human, UniProt Q29983 24-331); assay: cell-based or functional assay
T2 chain: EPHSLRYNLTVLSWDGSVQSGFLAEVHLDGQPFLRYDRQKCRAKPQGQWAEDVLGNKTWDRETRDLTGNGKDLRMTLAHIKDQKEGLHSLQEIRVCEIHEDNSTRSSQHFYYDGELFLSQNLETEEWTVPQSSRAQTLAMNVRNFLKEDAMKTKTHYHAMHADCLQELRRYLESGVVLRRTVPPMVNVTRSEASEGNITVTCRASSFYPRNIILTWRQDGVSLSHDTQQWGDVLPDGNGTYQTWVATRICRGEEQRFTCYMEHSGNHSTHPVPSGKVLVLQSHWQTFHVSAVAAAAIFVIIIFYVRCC

[3] = molecular target: T3, human MICA/B endogenously expressed on HeLa cells (MICA allele *008) (human, UniProt Q29983 24-331); assay: cell-based or functional assay
T3 chain: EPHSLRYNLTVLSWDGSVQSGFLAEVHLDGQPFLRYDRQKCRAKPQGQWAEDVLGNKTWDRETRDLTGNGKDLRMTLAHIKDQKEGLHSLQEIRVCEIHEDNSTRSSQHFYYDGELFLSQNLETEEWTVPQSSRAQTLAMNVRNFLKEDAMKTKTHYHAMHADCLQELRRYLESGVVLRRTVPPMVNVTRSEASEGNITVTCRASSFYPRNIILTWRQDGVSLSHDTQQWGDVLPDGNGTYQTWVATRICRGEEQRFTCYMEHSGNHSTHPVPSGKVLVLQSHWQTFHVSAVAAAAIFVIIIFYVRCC

[4] = molecular target: T4, human MICA/B endogenously expressed on RPMI-8226 cells (human, UniProt Q29983 24-383); assay: flow cytometry, tumor cells with endogenous MICA/B
T4 construct: whole, on cells
T4 sequence (looked up): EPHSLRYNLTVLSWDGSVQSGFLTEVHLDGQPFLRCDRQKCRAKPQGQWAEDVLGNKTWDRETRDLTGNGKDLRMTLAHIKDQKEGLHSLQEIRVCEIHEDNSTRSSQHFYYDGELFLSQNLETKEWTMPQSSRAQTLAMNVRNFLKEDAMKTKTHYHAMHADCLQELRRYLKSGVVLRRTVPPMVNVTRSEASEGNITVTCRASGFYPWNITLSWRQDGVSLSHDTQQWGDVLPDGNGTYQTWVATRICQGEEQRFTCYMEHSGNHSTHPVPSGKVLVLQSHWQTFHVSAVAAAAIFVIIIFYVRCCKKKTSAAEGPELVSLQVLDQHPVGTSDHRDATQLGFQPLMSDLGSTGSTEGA
Description: Serial dilutions of MICA.36-IgG1-NF-G236A mAb were incubated with CHO cells transduced with human MICA/B common alleles or human tumor cell lines that endogenously express MICA/B. Cells were then washed twice, and cell bound antibodies were detected using a secondary anti-human antibody conjugated with a fluorophore. Flow cytometric analyses were performed using a FACSCantoII or FACS Fortessa X-20 flow cytometer. The geometric mean fluorescence intensity of MICA.36-IgG1-NF-G236A mAb bound to cells was determined using FlowJo analysis software. Dose-response curves were generated and EC50s calculated using Prism software.
MICA.36-IgG1-NF-G236A bound to endogenously expressed MICA/B on a variety of human tumor cell lines (FIG. 8B).

[5] = molecular target: T2, human MICA/B endogenously expressed on …; assay: flow cytometry, tumor cells with endogenous MICA/B (column Binding EC50)
[6] = molecular target: T3, human MICA/B endogenously expressed on …; assay: as above
[7] = molecular target: T5, recombinant soluble human MICA*004 antigen (human, UniProt Q29983 24-307); assay: SPR (Biacore T200, 37 C), antibody captured on anti-human Fc, antigen 100 and 10 nM
T5 construct: also called huIMICA-his allele *004
T5 chain: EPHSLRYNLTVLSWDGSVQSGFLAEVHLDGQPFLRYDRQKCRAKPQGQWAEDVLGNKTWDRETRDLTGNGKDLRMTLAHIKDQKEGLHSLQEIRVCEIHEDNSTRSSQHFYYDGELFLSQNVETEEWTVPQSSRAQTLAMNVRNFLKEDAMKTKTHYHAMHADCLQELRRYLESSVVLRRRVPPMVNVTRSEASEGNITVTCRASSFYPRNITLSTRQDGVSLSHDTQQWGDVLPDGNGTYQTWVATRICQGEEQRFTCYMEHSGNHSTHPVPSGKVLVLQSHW
Description: (§1) Anti-MICA/B antibodies were captured to α-human Fc surfaces. MICA allele antigens were injected at high and low nanomolar concentrations (500 nM and 50 nM, except indicated otherwise). The results for antibodies MICA.36 and MICA.38 (MICA.2 with a Ser inserted between residues 95 and 96 in the light chain) are shown in Table 2 below.

[8] = molecular target: T6, recombinant soluble human MICA*008 antigen (human, UniProt Q29983 24-307); assay: as above
T6 construct: also called huIMICA-his allele *008; recombinant soluble MICA (allele 8)
T6 chain: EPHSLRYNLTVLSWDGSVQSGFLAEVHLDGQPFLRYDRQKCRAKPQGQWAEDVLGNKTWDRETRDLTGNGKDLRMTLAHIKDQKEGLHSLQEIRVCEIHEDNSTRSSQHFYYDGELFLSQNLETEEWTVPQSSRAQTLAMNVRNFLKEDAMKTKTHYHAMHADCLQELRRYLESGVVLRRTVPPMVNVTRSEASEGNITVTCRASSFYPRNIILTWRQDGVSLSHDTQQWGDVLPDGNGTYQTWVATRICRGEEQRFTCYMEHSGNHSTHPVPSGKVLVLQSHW
Description: as §1

[9] = molecular target: T7, recombinant soluble human MICA*009 antigen (human, UniProt Q29983 24-307); assay: as above
T7 construct: also called huIMICA-his allele *009
T7 chain: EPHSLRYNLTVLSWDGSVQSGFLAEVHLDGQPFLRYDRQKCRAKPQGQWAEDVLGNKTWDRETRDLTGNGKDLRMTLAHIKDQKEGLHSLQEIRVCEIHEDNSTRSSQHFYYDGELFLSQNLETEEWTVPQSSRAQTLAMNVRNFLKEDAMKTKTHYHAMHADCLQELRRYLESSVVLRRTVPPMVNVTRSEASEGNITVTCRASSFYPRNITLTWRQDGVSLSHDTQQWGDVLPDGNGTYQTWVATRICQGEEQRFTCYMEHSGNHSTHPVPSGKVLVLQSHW
Description: as §1

[10] = molecular target: T8, recombinant soluble human MICA*002 antigen (human, UniProt Q29983 24-307); assay: SPR (Biacore T200, 37 C), antibody captured on anti-human Fc, antigen 500 and 50 nM
T8 construct: also called huIMICA-his allele *002
T8 chain: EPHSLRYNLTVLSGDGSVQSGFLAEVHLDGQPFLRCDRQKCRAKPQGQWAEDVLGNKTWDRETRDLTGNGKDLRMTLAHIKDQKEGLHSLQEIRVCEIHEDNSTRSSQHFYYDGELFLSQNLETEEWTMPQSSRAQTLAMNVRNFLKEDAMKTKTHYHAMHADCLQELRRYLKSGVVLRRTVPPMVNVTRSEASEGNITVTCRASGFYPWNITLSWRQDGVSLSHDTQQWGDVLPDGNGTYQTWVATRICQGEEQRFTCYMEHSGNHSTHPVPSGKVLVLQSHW
Description: as §1

[11] = molecular target: T5, recombinant soluble human MICA*004 …; assay: as above
Description: as §1

[12] = molecular target: T6, recombinant soluble human MICA*008 …; assay: as above
Description: as §1

[13] = molecular target: T7, recombinant soluble human MICA*009 …; assay: as above
Description: as §1

[14] = molecular target: T5, recombinant soluble human MICA*004 …; assay: SPR (Biacore T200, 37 C), antibody captured on anti-human Fc, range over both antigen concentration sets
Description: as §1

[15] = molecular target: T6, recombinant soluble human MICA*008 …; assay: as above
Description: as §1

[16] = molecular target: T7, recombinant soluble human MICA*009 …; assay: as above
Description: as §1

B1: MICA.36-IgG1-NF-G236A (antibody)
heavy: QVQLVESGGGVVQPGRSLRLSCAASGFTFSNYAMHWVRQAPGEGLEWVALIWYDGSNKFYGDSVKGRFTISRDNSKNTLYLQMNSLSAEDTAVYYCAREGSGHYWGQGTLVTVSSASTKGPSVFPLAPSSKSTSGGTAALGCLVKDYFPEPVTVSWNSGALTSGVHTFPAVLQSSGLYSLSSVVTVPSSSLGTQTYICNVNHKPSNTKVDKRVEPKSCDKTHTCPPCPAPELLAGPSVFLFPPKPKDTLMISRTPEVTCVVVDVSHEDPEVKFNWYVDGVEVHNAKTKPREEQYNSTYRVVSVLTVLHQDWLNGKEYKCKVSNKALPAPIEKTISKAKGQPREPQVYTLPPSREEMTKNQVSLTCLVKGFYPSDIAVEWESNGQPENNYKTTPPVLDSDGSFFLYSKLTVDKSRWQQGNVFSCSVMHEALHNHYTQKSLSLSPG
light: AIQLTQSPSSLSASVGDRVTITCRASQGISSALAWYQQKPGKVPKSLIYDASSLESGVPSRFSGSGSGTDFTLTISSLQPEDFATYYCQQFNSYPITFGQGTRLEIKRTVAAPSVFIFPPSDEQLKSGTASVVCLLNNFYPREAKVQWKVDNALQSGNSQESVTEQDSKDSTYSLSSTLTLSKADYEKHKVYACEVTHQGLSSPVTKSFNRGEC
modifications: non-fucosylated (expressed in FUT8-knock-out CHO cells)
notes: Human IgG1 with G236A (EU numbering); also called MICA.36 NF G236A; MICA.36-NF-G236A
- OT-I CD8+ T cell proliferation (antigen cross-presentation) EC50 [1]: 1.6 nM
- antibody dependent cellular phagocytosis (ADCP) EC50 [1]: 10.7 nM
- Fold increase in surface MICA [2]: 1.47 fold
- MICA retention EC50 [2]: 0.057 nM
- Reduction in sMICA EC50 [2]: 0.14 nM
- Fold increase in surface MICA [3]: 1.43 fold
- MICA retention EC50 [3]: 0.032 nM
- Reduction in sMICA EC50 [3]: 0.1 nM
- EC50 [4]: 3.9 nM
- EC50 [5]: 1.37 nM
- EC50 [6]: 1.76 nM

B2: MICA.36 hIgG1 (antibody)
heavy: not shown
light: AIQLTQSPSSLSASVGDRVTITCRASQGISSALAWYQQKPGKVPKSLIYDASSLESGVPSRFSGSGSGTDFTLTISSLQPEDFATYYCQQFNSYPITFGQGTRLEIKRTVAAPSVFIFPPSDEQLKSGTASVVCLLNNFYPREAKVQWKVDNALQSGNSQESVTEQDSKDSTYSLSSTLTLSKADYEKHKVYACEVTHQGLSSPVTKSFNRGEC
notes: Recombinant form of hybridoma 19G6 with wild type human IgG1 (236G), fucosylated; also called MICA.36hIgGl; MICA.36 IgG1
- koff [7]: 0.000637 s⁻¹
- kon [7]: 46200 M⁻¹ s⁻¹
- koff [8]: 0.000606 s⁻¹
- kon [8]: 120000 M⁻¹ s⁻¹
- koff [9]: 0.000642 s⁻¹
- kon [9]: 54100 M⁻¹ s⁻¹
- Kd [10]: > 250 nM
- koff [10]: 0.0161 s⁻¹
- kon [10]: 28600 M⁻¹ s⁻¹
- koff [11]: 0.000591 s⁻¹
- kon [11]: 95200 M⁻¹ s⁻¹
- koff [12]: 0.000565 s⁻¹
- kon [12]: 140000 M⁻¹ s⁻¹
- koff [13]: 0.000603 s⁻¹
- kon [13]: 70100 M⁻¹ s⁻¹
- Kd [14]: 6.2 to 13.8 nM
- Kd [15]: 4 to 5.1 nM
- Kd [16]: 8.6 to 11.9 nM
